# Laboratory results reported in patent publication US20240002531A1 (ONO PHARMACEUTICAL, published 2024).
# T1: HER2 peptide p614-619 (human)
# T1 peptide: WKFPDE
# T2: HER2 peptide p613-618 (human)
# T2 peptide: IWKFPD
# T3: HER2 peptide p613-619 (human)
# T3 peptide: IWKFPDE
# T4: HER2 peptide p613-621 (human)
# T4 peptide: IWKFPDEEG
# T5: HER2 peptide p613-622 (human)
# T5 peptide: IWKFPDEEGA
# T6: HER2 peptide p612-619 (human)
# T6 peptide: PIWKFPDE
# T7: HER2 peptide p612-620 (human)
# T7 peptide: PIWKFPDEE
# T8: HER2 peptide p612-621 (human)
# T8 peptide: PIWKFPDEEG
# T9: HER2 peptide p612-622 (human)
# T9 peptide: PIWKFPDEEGA
# T10: HER2 peptide p611-618 (human)
# T10 peptide: MPIWKFPD
# T11: HER2 peptide p611-622 (human)
# T11 peptide: MPIWKFPDEEGA
# T12: HER2 peptide p610-618 (human)
# T12 peptide: YMPIWKFPD
# T13: HER2 peptide p610-620 (human)
# T13 peptide: YMPIWKFPDEE
# T14: HER2 peptide p609-618 (human)
# T14 peptide: SYMPIWKFPD
# T15: HER2 peptide p609-619 (human)
# T15 peptide: SYMPIWKFPDE
# T16: HER2 peptide p609-622 (human)
# T16 peptide: SYMPIWKFPDEEGA
# B1: H2Mab-250 antibody (antibody, V domains shown)
# VH: EVQLVESGGGLVQPGGSLKLSCAASGFTFSNYGMSWVRQTPDRRLELVATINNNGGGTYYPDSVKGRFTISRDNAKNTLYLQMSSLKSEDTAMYYCTSPGLLWDAWGAGTTVTVSS
# VL: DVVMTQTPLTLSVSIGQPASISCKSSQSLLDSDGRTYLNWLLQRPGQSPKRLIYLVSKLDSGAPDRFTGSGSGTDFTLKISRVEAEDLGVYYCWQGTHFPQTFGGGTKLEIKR
# notes: Mouse monoclonal from a hybridoma (immunogen HER2ec made in LN229 cells); also called antibody of the present invention
# Legend:
# Assay in all cases: SPR Biacore, mAb on chip, peptide analyte, 1:1 fit
# HER2 peptide p614-619 = target: T1, HER2 peptide p614-619
# Procedure: (§1) Unreacted NHS esters were blocked with ethanolamine. […] All measurements were performed at 25° C. Measurement data were analyzed using a 1:1 binding model of BIAevaluation software (Cytiva) to determine a binding rate constant (ka), a dissociation rate constant (kd), and a dissociation constant (KD). For those in which ka or kd could not be determined, KD was determined using the equilibrium value analysis method of BIAevaluation software (Cytiva).
# HER2 peptide p613-618 = target: T2, HER2 peptide p613-618
# Procedure: as §1
# HER2 peptide p613-619 = target: T3, HER2 peptide p613-619
# Procedure: as §1
# HER2 peptide p613-621 = target: T4, HER2 peptide p613-621
# Procedure: as §1
# HER2 peptide p613-622 = target: T5, HER2 peptide p613-622
# Procedure: as §1
# HER2 peptide p612-619 = target: T6, HER2 peptide p612-619
# Procedure: as §1
# HER2 peptide p612-620 = target: T7, HER2 peptide p612-620
# Procedure: as §1
# HER2 peptide p612-621 = target: T8, HER2 peptide p612-621
# Procedure: as §1
# HER2 peptide p612-622 = target: T9, HER2 peptide p612-622
# Procedure: as §1
# HER2 peptide p611-618 = target: T10, HER2 peptide p611-618
# Procedure: as §1
# HER2 peptide p611-622 = target: T11, HER2 peptide p611-622
# Procedure: as §1
# HER2 peptide p610-618 = target: T12, HER2 peptide p610-618
# Procedure: as §1
# HER2 peptide p610-620 = target: T13, HER2 peptide p610-620
# Procedure: as §1
# HER2 peptide p609-618 = target: T14, HER2 peptide p609-618
# Procedure: as §1
# HER2 peptide p609-619 = target: T15, HER2 peptide p609-619
# Procedure: as §1
# HER2 peptide p609-622 = target: T16, HER2 peptide p609-622
# Procedure: as §1
binder,measurement,setting,value
B1,Kd,HER2 peptide p614-619,1380 nM
same,koff,HER2 peptide p614-619,0.00118 s⁻¹
same,kon,HER2 peptide p614-619,854 M⁻¹ s⁻¹
same,Kd,HER2 peptide p613-618,4.45 nM
same,koff,HER2 peptide p613-618,0.00289 s⁻¹
same,kon,HER2 peptide p613-618,649000 M⁻¹ s⁻¹
same,Kd,HER2 peptide p613-619,10.3 nM
same,koff,HER2 peptide p613-619,0.0041 s⁻¹
same,kon,HER2 peptide p613-619,397000 M⁻¹ s⁻¹
same,Kd,HER2 peptide p613-621,10.5 nM
same,koff,HER2 peptide p613-621,0.00343 s⁻¹
same,kon,HER2 peptide p613-621,325000 M⁻¹ s⁻¹
same,Kd,HER2 peptide p613-622,14 nM
same,koff,HER2 peptide p613-622,0.00346 s⁻¹
same,kon,HER2 peptide p613-622,247000 M⁻¹ s⁻¹
same,Kd,HER2 peptide p612-619,3.36 nM
same,koff,HER2 peptide p612-619,0.000841 s⁻¹
same,kon,HER2 peptide p612-619,250000 M⁻¹ s⁻¹
same,Kd,HER2 peptide p612-620,4.39 nM
same,koff,HER2 peptide p612-620,0.000756 s⁻¹
same,kon,HER2 peptide p612-620,172000 M⁻¹ s⁻¹
same,Kd,HER2 peptide p612-621,3.49 nM
same,koff,HER2 peptide p612-621,0.000683 s⁻¹
same,kon,HER2 peptide p612-621,196000 M⁻¹ s⁻¹
same,Kd,HER2 peptide p612-622,3.74 nM
same,koff,HER2 peptide p612-622,0.000724 s⁻¹
same,kon,HER2 peptide p612-622,194000 M⁻¹ s⁻¹
same,Kd,HER2 peptide p611-618,0.869 nM
same,koff,HER2 peptide p611-618,0.00031 s⁻¹
same,kon,HER2 peptide p611-618,356000 M⁻¹ s⁻¹
same,Kd,HER2 peptide p611-622,2.02 nM
same,koff,HER2 peptide p611-622,0.000378 s⁻¹
same,kon,HER2 peptide p611-622,187000 M⁻¹ s⁻¹
same,Kd,HER2 peptide p610-618,0.599 nM
same,koff,HER2 peptide p610-618,0.000225 s⁻¹
same,kon,HER2 peptide p610-618,376000 M⁻¹ s⁻¹
same,Kd,HER2 peptide p610-620,1.32 nM
same,koff,HER2 peptide p610-620,0.000342 s⁻¹
same,kon,HER2 peptide p610-620,260000 M⁻¹ s⁻¹
same,Kd,HER2 peptide p609-618,0.803 nM
same,koff,HER2 peptide p609-618,0.00021 s⁻¹
same,kon,HER2 peptide p609-618,262000 M⁻¹ s⁻¹
same,Kd,HER2 peptide p609-619,1.2 nM
same,koff,HER2 peptide p609-619,0.000293 s⁻¹
same,kon,HER2 peptide p609-619,244000 M⁻¹ s⁻¹
same,Kd,HER2 peptide p609-622,1.57 nM
same,koff,HER2 peptide p609-622,0.00033 s⁻¹
same,kon,HER2 peptide p609-622,210000 M⁻¹ s⁻¹
